According to a protein production outcome set (Wang et al. 2014):

Experiment: label from the status in PepcDB records
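Also: failed if final PepcDB status was selected cloned or expressed and not failed if soluble or beyond.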

| Sequence | protein production |
| --- | --- |
| EMTLVTLRSNDQFNTTIYGFSDRLRGLEGPRNVLLMNPEEIARHGLHEGQRVTLECAWSDGVDRRVSGLRVTAYDLPDSCVGAYYPETNPLVPLAARDELSGTPAYKGTPVRVRAEGSAAPL | failed |
| MESSKKMDSPGALQTNPPLKLHTDRSAGTPVFVPEQGGYKEKFVKTVEDKYKCEKCHLVLCSPKQTECGHRFCESCMAALLSSSSPKCTACQESIVKDKVFKDNCCKREILALQIYCRNESRGCAEQLTLGHLLVHLKNDCHFEELPCVRPDCKEKVLRKDLRDHVEKACKYREATCSHCKSQVPMIALQVSLLQNESVEKNKSIQSLHNQICSFEIEIERQKEMLRNNESKILHLQRVIDSQAEKLKELDKEIRPFRQNWEEADSMKSSVESLQNRVTELESVDKSAGQVARNTGLLESQLSRHDQMLSVHDIRLADMDLRFQVLETASYNGVLIWKIRDYNRRKQEAVMGKTLSLYSQPFYTGYFGYKMCARVYLNGDGMGKGTHLSLFFVIMRGEYDALLPWPFKQKVTLMLMDQGSSRRHLGDAFKPDPNSSSFKKPTGEMNIASGCPVFVAQTVLENGTYIKDDTIFIKVIVDTSDLPDP | not failed |
| LEDFNVTSKVIELDVRKPTPEAAENLNIGMDEDIYYVKRVRYINGQTLCYEESYYTKSIVTYLNNEIVSHSIFHYIREGLGLKIGFSDLFLHVGQLNEEEAEYLGLEAGLPKLYIESIFHLTNGQPFDYSKISYNYEQSQFVVQANSFLL | failed |
| MSVKRVLRNTIRKEKEENRVTEPLTETPELSAKYAWFFDLDGTLAEIKPHPDQVVVPDTILQGLQLLATASDGALALISGRSMVELDALAKPYRFPLAGVHGAERRDINGKTHIVHLPDAIARDISVQLHTVIAQYPGAELEAKGMAFALHYRQAPQHEDALMTLAQRITQIWPQMALQQGKCVVEIKPKGTSKGEAIAAFMQEAPFIGRTPVFLGDDLTDESGFAVVNRLGGMSVKIGTGATQASWRLAGVPDVWSWLEMITTALQQKRENNRSDDYESFSRSI | failed |
| MPRLARSLPLLLGLGLAAWAGATDGPLPVPADGVKLEAPTTASPSIRLVIPAEEIERRALAEYRQIIDNAAREGALAPDSVPDLARIRAIVQRLVPHAPRWNPDAAHWQWEVNLIGAAQVNAFCMPGGKIAVFSGLLERFRLTDDELAMALGHEIAHALREHARARAGQREITNLGANVISQLFGFGNRGDAGFGEGAKMHLLAFSRAEETEADLIGMDIAARAGFDPRAALTLWQKMGSIGGAEQKQFLSTHPSGRSRMTVLSRHLPETLPLYADALRMPMAKLPEYRSNMQYLGAAPVDNGDEAPMRPMVQQ | failed |
| MGSKTSPKWISAILRWPLLWHAARLALVSAYILGGFTKLLDLAGAAAEQEHFGLYPGWLWASAAILVELFGSLLVVINRWVWLGAGGLGILTFVAMLTANAFWTMGGHERFMATNAFFEHLGLIAGLVIVTILSEEAVTRPKSGAGSQAIQGVSR | failed |
| MKTIRLWDLPTRLFHWLLVIAVVGAVATVKLGAGWMAWHERFGLAVVGLLAFRVVWGLVGSTYARFSQFISGPGAMIRYLRGQWQGAGHNPLGAWSVLLLLGLFGFQAVTGLFANDEIAFNGPLYRLVSSGWSDTLSSWHRLMEWGLYAVVALHVLAVLFYTHVRKDNLIKPMVTGRKQVQSSELKDASGGGWLAMIIALAIAVAVVWAASGGLIPPPPPPPQNLGW | failed |
| MTENTSSFPRSSGELHEFTRADVWGGFTQLLPLSFFVVVFGLAFGVAAVQTGLDAFPTLLMSTLVFAGASQFATLEMWGAEVPLVPVLITVFAINARHLLMGATLYPWLRQLPPHKRYGIMLLASDANWAMAMNAFGKKEPGFGLLVGGGLALWGFWIVGTWMGIYFGGAIKDPVSLGLDMVMGCFLLSMVAGGPKNLRIFAIWGMAAASSLMAYWYLPENSHVVVGAIAGGILGACWKEKKA | failed |
| MLQPGGTPTKIVCLTQVVTADDLRDDAEYADIMEDMSQEGGKFGNLVNVVIPRPNPDHDPTPGVGKVFLEYADVDGSSKARSGMNGRKFGGNQVVAVYYPEDKYAQGDYED | failed |
| MGSSHHHHHHSSGRENLYFQGSQESIQNKISQCKFSVCPERLQCPLEAIQCPITLEQPEKGIFVKNSDGSDVCTLFDAAAFSRLVGEGLPHPLTREPITASIIVKHEECIYDDTRGNFIIKGN | not failed |
| MEEKKDFYDTDELRDFMALVEKTNDIKKIALFRILAFTGIRKGELLALEWKDYRKSTLDINKAISHSPVGYEILPPKANSNRLLSLDEKTCKILDELHQTYPESTRIFESENGGMLSPSKPRKWLLEITKEKEIEPIRIHAFRHTHASLLFESGMSLKQVQYRLGHADLKTTMNIYTHITKLEHHHHHH | not failed |
| MIAHPVVGIVGIAGAYGRWLAQFLRTRMGLEVIGVDPALPDGLDDATLVARADVLIFSAPIRHTAALIERYAALAGARAAEQLWLDVTSIKQAPVAAMLASQAEVVGLHPMTAPPKSPTLKGRVMVVCRARVQRWSGWVDALCSALQAECVYATPEHHDRVMALVQAMVHATHLAQAGTLRDYAPLLGELRTLMPYRSASFELDTAVIARILSLNPSIYEDIQFGNPYVAEMLDRLLAQLQELRGLVVQGDDAARLRFRQAFLDANAQALQGDSLAAGNYTYERVGYLLADLTEPLTLSVYLPEDQPGSLRVLLHVFEQHGVNLSSIHSSRTPGGELHFRMGFEPESDRAALGRAAAQIDADRIGRVLERVDRER | failed |
| FHPVYSVQLEQKLVEKFNLKRALISLDQPNTNEQRKQVAALVSSYLNNNLQEGMAVAVGQGQNVAAVADHAGIVTQRNARFVSAIGGTHRSGDIINADHICRRLAKKYGGSSETLYAPAYVNDPSLRSAFMEHATIKETLSQARKAEFALVGIGDMDENSHMVKLGFFTPKEFVEARLNDGIVGDIGGFDFFKLDGTDADTLMRGRVIGLEMEDLRQIPNVVAMASESRKALSIMGALRTGVIDVLATSVSCAMALLNLAENEE | not failed |
| MSLDIQSLDIQCEELSDARWAELLPLLQQCQVVRLDDCGLTEARCKDISSALRVNPALAELNLRSNELGDVGVHCVLQGLQTPSCKIQKLSLQNCCLTGAGCGVLSSTLRTLPTLQELHLSDNLLGDAGLQLLCEGLLDPQCRLEKLQLEYCSLSAASCEPLASVLRAKPDFKELTVSNNDINEAGVRVLCQGLKDSPCQLEALKLESCGVTSDNCRDLCGIVASKASLRELALGSNKLGDVGMAELCPGLLHPSSRLRTLWIWECGITAKGCGDLCRVLRAKESLKELSLAGNELGDEGARLLCETLLEPGCQLESLWVKSCSFTAACCSHFSSVLAQNRFLLELQISNNRLEDAGVRELCQGLGQPGSVLRVLWLADCDVSDSSCSSLAATLLANHSLRELDLSNNCLGDAGILQLVESVRQPGCLLEQLVLYDIYWSEEMEDRLQALEKDKPSLRVIS | not failed |
| MKKSKHLKRPYLKRSHLKHSDKASSFKGLLKKEDNVISLENFKPKESEDLLENFSNKKDMQELLGLLNQFILQSYKVEKEFKDYKALYEWVIEILPQAIWVVNENGSFFYKNSLANQSHEVFNKAKLENFNTEIEHENKSYLVQQNSIQGKQIITATDISAQKRQERLASMGKISAHLAHEIRNPVGSISLLASVLLKHANEKTKPIVVELQKALWRVERIIKATLLFSKGIQANRTKQSLKTLESDLKEALNCYTYSKDIDFLFNFSDEEGFFDFDLMGIVLQNFLYNAIDAIEALEESEQGQVKIEAFIQNEFIVFTIIDNGKEVENKSALFEPFETTKLKGNGLGLALSLQVVKAHEGSIALLENQEKTFEIKILNAS | failed |
| MKRFCNGLLASALVLSLLLTGCGAAGGQQPAQASGPEQPAVRTVTDAEGNVVEVPQDISRIAVTPLPWSSVVSAIDGGSQRLASINPGALKAYSGSFFAKLDKNYATLDDTSIGSDFSINVEELLNRQVQVVIIWEYQTAEAAKLKDVGIVPVMVKNGNVQELQDSFKAVGQLLGKEERAKWVNDEYAKAYEKMKSYGEQVKKADKPRVLYLKRSDLTLQGNDNFIKESMELAGADNIAAEAKSITMEEILKLDPEIILLSDFDKFLPQDLYENRIEGQDWSSVSAVVNKRVYKTPVGIYRWDAPGVETPLMMFWLGKMLQPEIFSEVDLKAEMKAFYQDVFDYSLTDEDFGQIFNDKANAASERRIS | failed |
| MILKTKLFGKVYQFTSVKEVLAKANEEKSGDKLAGVAANSAEERVAAKVVLSELSLNDLFNNPVVDYDEDEVTRIIIDQVNMRIFESIKHWTVAELREFILSSETTDFDIKRISRGLTSEMIAAVCKLMSNMDLIVGAKKINIEKTANTTIGRPGTFSNRLQPNHPTDNVDGIMASVMEGLSYGAGDALIGLNPVDDSTESVKRILNKFEEFRSEWEIPTQTCVLAHVTTQMEAMRQGAPTGLVFQSIAGSEKGNTAFGLNAEILAEAQDLALHSGQAAGPNVMYFETGQGSELSSEANFGADQVTMEARCYGLAKKFDPYIVNTVVGFIGPEYLYDSKQVIRAGLEDHFMGKLTGISMGCDVCYTNHMKADQNDMENLAMLLATAGCTYIMGIPHGDDVMLNYQTTGFHETATIRETLGLRPIKEFEEWMEKMGLMENGKLTSRAGDASVFIK | not failed |
| MFESLGFEETTAKEISVLLGLSLGVLFGLLAERTRFCFRRAVVGEDARQAAGVWFTALAVAILGTQASVASGLIGFADHRLLSSDLPVLAVVLGGLMFGAGMVLTRGCISRLTVLGGTGNLRALTVLLVFAVVAHAMLKGVLAPLRTSLGAVTVDLGETVSLAALPGGAALWTALLALASLLIAARSGNRALPLLGAALIGLLVPLGWVGTGYVLFDEFDPITMESLSFTAPAADTLFYTIASTSIAPGFGTGLVGGVLLGALAAALLFGSFRWQSFDSPRQTGRYLAGATLMGMGGVLAGGCTLGAGLAGIPTLSLAALLALTAIALGARLTDAALNAASSGSAGYPATPGQQPAE | failed |
| MVTIPIFLIIIGATMAVVVWSAKRTKSAADFYTAGGGITGTQNGWAIAGDYMSAASFLGISGMISLYGYDGFMYSVGWLVAYITVLLIVAEPCRNAGKYTLGDILSFRTEPKVVRAVCAISVVAVSTFYLTAQMVGAGKLMQLLLGIPYKFAIIGVGILMVGYVVFGGMTATTWVQIIKAGLLMTGAGLLSVLVGLKAGMNPFTFFNDIATNPNIIEHVQKAVLKDPVAVAGFDYGQRFLEPGLFLKNPLDQISLGMALVLGTAGMPHILMRFFTVPTAQAARKSVIVAMFIIGSFYILTTLLGFGAAIHVTPQGITAVDKGGNMAAMMLAQQLGGDISPFLGDLLLAFLCAVAFATILAVVSGLVLAASAAIAHDIYVNVIKDGHADQHEQVMAARITSLCVGAMGIIIGIAAEKQNVAHLVALAFAVASSGNLPVVVMSLFWRKFNTAGVVSGLVVGTVASIALVMVSPNMTYPKVVAADAQKVVTKLEEKQAGGAVLTEKEMKDLDKAKADYAKNKDGKSMLGLDKPLIKLKNPGIISIPLGFLAAIIGCLAFPSRRSEEMFDEIYVRQNTGIGMAKAIDH | failed |
| MIERLRGALASASFPVMALLLLSAIVVYPLWTMLFLGAVFAYIVRPVALRINRRIPYLSVSIILAMIVVIMPLVGILVFTVDSIINSAPSLLSLAGSIHVPGAGNLQPSAENTLANLRTVLRDILSGSLNYVVAILQSVPMISLQLFVFLSSTFYFARDGKRLVGYIRTLIPEETRPFMERMASETERVLLSIFYGHFLTALAIGLMAAVGFHLLGYPYAILLGIMTGLFQLIPVIGPWAAYTPLSIYDFVTGNILRGVLVLIFGLFLSTIDIYLRPKLSGKYADIHPMIFLVGFLGGPVVWGVAGFIVGPLVLGLAYAALEAYRMESGGEEVQ | failed |
